According to patent US20050130151:

System: FMRP RGG box (isolated, C-terminal deletion construct) (Homo sapiens), Q06787-9
Assay: filter

For 28S rRNA fragment (230 nt), the Kd was greater than 5 µM.
